{
  "source": "paper PMC3167946",
  "about": "(Vaccine, 2011)",
  "target": "Envelope glycoprotein gp120Bal (HIV-1 isolate BaL (subtype B), clone …, UniProt Q6TAP7, strain)",
  "assay": "ELISA",
  "data": [
    {"binder": "human mature b12 scFv (scFv, V domains shown) VH: QVQLVQSGAEVKKPGASVKVSCQASGYRFSNFVIHWVRQAPGQRFEWMGWINPYNGNKEFSAKFQDRVTFTADTSANTAYMELRSLRSADTAVYYCARVGPYSWDDSPQDNYYMDVWGKGTTVIVSS VL: EIVLTQSPGTLSLSPGERATFSCRSSHSIRSRRVAWYQHKPGQAPRLVIHGVSNRASGISDRFSGSGSGTDFTLTITRVEPEDFALYYCQVYGASSYTFGQGTKLERK", "values": [
      {"measurement": "EC50", "value": 0.3, "unit": "nM"}
    ]}
  ]
}
